For this assay, the target named is calmodulin, purified (UniProt P0DP23 1-149). Put plainly: pull-down.

B1: GST fusion of α1C aa 1581–1690 with EEDAAA in place of TVGKFY (Mut6) (domain or fragment)
chain: not shown
With B1, the binding result is listed as “binds”.
